The values below come from patent US20140162285A1, “Methods of Modulating Vesicular Trafficking” (The General Hospital Corporation, priority 2009, published 2014).

The target in this experiment is T1, ARNO PH-domain (Homo sapiens, UniProt Q99418).
T1 construct: iv) 253-378aa, plekstrin-homology (PH) domain; made in house; host or cells: E. coli BL21(DE3)
T1 sequence (Q99418 253-378): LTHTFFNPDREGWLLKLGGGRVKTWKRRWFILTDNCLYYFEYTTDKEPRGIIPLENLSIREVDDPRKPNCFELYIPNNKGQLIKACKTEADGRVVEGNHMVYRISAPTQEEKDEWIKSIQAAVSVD
The experiment in a line: GST pull-down of in vitro translated a2N with ARNO PH-domain. Type of experiment: binding. The following applies: Western blot anti-a2N. The method, then:
The purified recombinant GST-ARNO(wt) and GST-tagged ARNO domain constructs ([…]) were incubated with 10 μl of in vitro translated 6His-a2N recombinant protein at 4° C. for 2 hours in 500 μl of binding buffer (10 mM HEPES, 1 mM EDTA, 1 mM DTT, 100 mM NaCl, 10% glycerol, 0.1% NP-40) with gentle rotation. Then the interacting recombinant proteins were immobilized on glutathione beads by incubation with 50 μl of 50% glutathione Sepharose 4B slurry for 2 hours at 4° C. The beads were collected by centrifugation and washed 5 times with 500 μl ice-cold binding buffer. Interacting proteins were eluted by boiling in SDS-PAGE sample buffer for 10 min at 95° C., resolved by SDS-PAGE and analyzed by Western blotting using polyclonal anti-a2N antibodies. […]
To examine the ability of these well-defined and functionally distinct domains of ARNO to interact with a2N1-402, full-length ARNO(wt) and its four domains were cloned separately for bacterial expression of recombinant proteins (FIG. 3). […] Interacting proteins were detected by western blot analysis with a2-specific antibodies as described above.
(A western blot detects proteins with antibodies after separation by electrophoresis.)

B1: a2N: recombinant N-terminal cytosolic tail, amino acid residues 1-402 of mouse V-ATPase a2-subunit (protein)
chain: MGSLFRSESMCLAQLFLQSGTAYECLSALGEKGLVQFRDLNQNVSSFQRKFVGEVKRCEELERILVYLVQEITRADIPLPEGEASPPAPPLKHVLEMQEQLQKLEVELREVTKNKEKLRKNLLELVEYTHMLRVTKTFLKRNVEFEPTYEEFPALENDSLLDYSCMQRLGAKLGFVSGLIQQGRVEAFERMLWRACKGYTIVTYAELDECLEDPETGEVIKWYVFLISFWGEQIGHKVKKICDCYHCHIYPYPNTAEERREIQEGLNTRIQDLYTVLHKTEDYLRQVLCKAAESVCSRVVQVRKMKAIYHMLNMCSFDVTNKCLIAEVWCPEVDLPGLRRALEEGSRESGATIPSFMNTIPTKETPPTLIRTNKFTEGFQNIVDAYGVGSYREVNPALFTII
modifications: left off: small tags and cut ends
notes: recombinant N-terminal cytosolic tail, amino acid residues 1-402 of mouse V-ATPase a2-subunit
B1: the “interaction of a2N with ARNO PH-domain” value is “weakly”.
